The record followed here is publication PMC4279225 (Molecular Biology of the Cell, 2015).

Series [1] deals with the molecule itself. The experiment in a line: SEC. (In general: In gel filtration, larger molecules generally elute earlier.)
Series [2] concerns the target T1, Recombinant wild-type septin complex Pnut-Sep2-Sep1 (His tag removed) (Drosophila melanogaster, UniProt P40797 1-539; P54359 1-419; P42207 1-361).
T1 sequence (looked up) 1: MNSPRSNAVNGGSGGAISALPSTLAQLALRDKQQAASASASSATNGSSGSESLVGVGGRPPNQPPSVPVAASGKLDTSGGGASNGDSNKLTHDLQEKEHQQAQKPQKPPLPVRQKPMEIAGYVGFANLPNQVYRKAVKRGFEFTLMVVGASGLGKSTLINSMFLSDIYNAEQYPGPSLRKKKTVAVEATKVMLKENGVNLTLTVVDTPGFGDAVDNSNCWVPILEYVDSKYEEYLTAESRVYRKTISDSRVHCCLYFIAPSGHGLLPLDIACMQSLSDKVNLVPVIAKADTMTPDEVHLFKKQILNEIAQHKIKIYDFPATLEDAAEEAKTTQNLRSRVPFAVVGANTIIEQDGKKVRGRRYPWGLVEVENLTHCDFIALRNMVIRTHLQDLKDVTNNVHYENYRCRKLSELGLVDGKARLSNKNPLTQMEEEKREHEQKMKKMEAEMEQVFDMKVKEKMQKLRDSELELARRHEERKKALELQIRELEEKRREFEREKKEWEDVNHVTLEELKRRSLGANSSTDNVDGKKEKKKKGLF
T1 sequence (looked up) 2: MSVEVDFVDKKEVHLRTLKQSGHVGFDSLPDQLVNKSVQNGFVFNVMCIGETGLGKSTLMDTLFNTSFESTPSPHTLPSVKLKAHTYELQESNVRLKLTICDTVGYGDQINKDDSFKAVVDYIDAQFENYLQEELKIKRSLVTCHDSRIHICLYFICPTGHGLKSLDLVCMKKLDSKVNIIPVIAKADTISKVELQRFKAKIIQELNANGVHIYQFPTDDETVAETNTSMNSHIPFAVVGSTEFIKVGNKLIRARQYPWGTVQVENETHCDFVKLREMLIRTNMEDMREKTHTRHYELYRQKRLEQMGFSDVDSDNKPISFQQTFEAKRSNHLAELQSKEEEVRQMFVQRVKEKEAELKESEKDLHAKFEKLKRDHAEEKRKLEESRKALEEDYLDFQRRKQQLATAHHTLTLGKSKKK
T1 sequence (looked up) 3: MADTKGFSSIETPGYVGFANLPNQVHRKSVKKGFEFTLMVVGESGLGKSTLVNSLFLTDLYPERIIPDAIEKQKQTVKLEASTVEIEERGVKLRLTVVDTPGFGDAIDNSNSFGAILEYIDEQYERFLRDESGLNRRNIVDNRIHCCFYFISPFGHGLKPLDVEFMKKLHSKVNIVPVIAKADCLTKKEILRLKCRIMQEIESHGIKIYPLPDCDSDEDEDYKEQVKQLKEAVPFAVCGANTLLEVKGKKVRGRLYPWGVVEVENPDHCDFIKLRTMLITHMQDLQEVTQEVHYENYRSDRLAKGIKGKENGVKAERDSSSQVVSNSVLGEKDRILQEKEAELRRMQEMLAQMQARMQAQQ
Put plainly: negative-stain EM with Ni-NTA Nanogold labelling.

Series [3] addresses T2, His-GFP-Orc6, wild type (Drosophila, UniProt Q9Y1B2 1-257).
T2 sequence (looked up): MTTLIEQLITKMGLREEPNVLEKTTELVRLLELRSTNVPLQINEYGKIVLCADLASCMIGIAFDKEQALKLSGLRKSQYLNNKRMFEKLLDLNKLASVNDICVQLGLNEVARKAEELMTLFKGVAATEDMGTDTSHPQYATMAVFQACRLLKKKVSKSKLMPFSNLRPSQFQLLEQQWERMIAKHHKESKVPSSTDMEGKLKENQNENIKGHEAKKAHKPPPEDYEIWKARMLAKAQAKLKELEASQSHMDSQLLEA
The experiment in a line: fluorescence polarisation. For orientation: Fluorescence polarisation rises when a labelled molecule tumbles more slowly, as on binding a larger partner.

Series [4] has as its target T3, GST-Orc6, wild type (Drosophila, UniProt Q9Y1B2 1-257).
T3 sequence (looked up): T2 sequence (looked up)
The experiment in a line: pull-down.

B1: His-Orc6, wild type, Orc6-wt (1–257) (natural protein, Drosophila, UniProt Q9Y1B2 1-257, looked up)
chain: T2 sequence (looked up)
In general, stoichiometry N refers to the number of molecules, sites or subunits per partner or assembly. As for B1, the “stoichiometry N” value was 2 in series [1] and 2.26 ± 0.34 Nanogold particles (His-Orc6 molecules) per septin hexamer in series [2].

B2: His-Orc6 Δ(1–186), N-terminus deletion (domain or fragment, Drosophila, UniProt Q9Y1B2 187-257, looked up)
chain: KESKVPSSTDMEGKLKENQNENIKGHEAKKAHKPPPEDYEIWKARMLAKAQAKLKELEASQSHMDSQLLEA
Regarding B2, the binding result in series [2] was “binds”.

B3: His-Orc6 Δ(200–257), Orc6 with truncated C-terminus (domain or fragment, Drosophila, UniProt Q9Y1B2 1-199, looked up)
chain: MTTLIEQLITKMGLREEPNVLEKTTELVRLLELRSTNVPLQINEYGKIVLCADLASCMIGIAFDKEQALKLSGLRKSQYLNNKRMFEKLLDLNKLASVNDICVQLGLNEVARKAEELMTLFKGVAATEDMGTDTSHPQYATMAVFQACRLLKKKVSKSKLMPFSNLRPSQFQLLEQQWERMIAKHHKESKVPSSTDMEG
B3: the binding result in series [1], in series [3] and in series [4] was “binds” throughout.
